Assay results from PMC4952014 (2015).

B1: Siglec-1 (recombinant protein used for SPR) (receptor)
chain: SWGVSSPQDVQGVKGSCLLIPCIFSFPADVEVPDGITAIWYYDYSGQRQVVSHSADPKLVEARFRGRTEFMGNPEHRVCNLLLKDLQPEDSGSYNFRFEISEVNRWSDVKGTLVTVTEEPRVPTIASPVELLEGTEVDFNCSTPYVCLQEQVRLQWQGQDPARSVTFNSQKFEPTGVGHLETLHMAMSWQDHGRILRCQLSVANHRAQSEIHLQVKYAPKGVKILLSPSGRNILPGELVTLTCQVNSSYPAVSSIKWLKDGVRLQTKTGVLHLPQAAWSDAGVYTCQAENGVGSLVSPPISLHIFMAEVQVSPAGPILENQTVTLVCNTPNEAPSDLRYSWYKNHVLLEDAHSHTLRLHLATRADTGFYFCEVQNVHGSERSGPVSVVVNHPPLTPVLTAFLETQAGLVGILHCSVVSEPLATLVLSHGGHILASTSGDSDHSPRFSGTSGPNSLRLEIRDLEETDSGEYKCSATNSLGNATSTLDFHANAARLLISPAAEVVEGQAVTLSCRSGLSPTPDARFSWYLNGALLHEGPGSSLLLPAASSTDAGSYHCRARDGHSASGPSSPAVLTVLYPPRQPTFTTRLDLDAAGAGAGRRGLLLCRVDSDPPARLQLLHKDRVVATSLPSGGGCSTCGGCSPRMKVTKAPNLLRVEIHNPLLEEEGLYLCEASNALGNASTSATFNGQATVLAIAPSHTLQEGTEANLTCNVSREAAGSPANFSWFRNGVLWAQGPLETVTLLPVARTDAALYACRILTEAGAQLSTPVLLSVLYPPDRPKLSALLDMGQGHMALFICTVDSRPLALLALFHGEHLLATSLGPQVPSHGRFQAKAEANSLKLEVRELGLGDSGSYRCEATNVLGSSNTSLFFQVRGAWVQVSPSPELQEGQAVVLSCQVHTGVPEGTSYRWYRDGQPLQESTSATLRFAAITLTQAGAYHCQAQAPGSATTSLAAPISLHVSYAPRHVTLTTLMDTGPGRLGLLLCRVDSDPPAQLRLLHGDRLVASTLQGVGGPEGSSPRLHVAVAPNTLRLEIHGAMLEDEGVYICEASNTLGQASASADFDAQAVNVQVWPGATVREGQLVNLTCLVWTTHPAQLTYTWYQDGQQRLDAHSIPLPNVTVRDATSYRCGVGPPGRAPRLSRPITLDVLYAPRNLRLTYLLESHGGQLALVLCTVDSRPPAQLALSHAGRLLASSTAASVPNTLRLELRGPQPRDEGFYSCSARSPLGQANTSLELRLEGVRVILAPEAAVPEGAPITVTCADPAAHAPTLYTWYHNGRWLQEGPAASLSFLVATRAHAGAYSCQAQDAQGTRSSRPAALQVLYAPQDAVLSSFRDSRARSMAVIQCTVDSEPPAELALSHDGKVLATSSGVHSLASGTGHVQVARNALRLQVQDVPAGDDTYVCTAQNLLGSISTIGRLQVEGARVVAEPGLDVPEGAALNLSCRLLGGPGPVGNSTFAWFWNDRRLHAEPVPTLAFTHVARAQAGMYHCLAELPTGAAASAPVMLRVLYPPKTPTMMVFVEPEGGLRGILDCRVDSEPLASLTLHLGSRLVASSQPQGAPAEPHIHVLASPNALRVDIEALRPSDQGEYICSASNVLGSASTSTYFGVRALHRLHQFQQLLWVLGLLVGLLLLLLGLGACYTWRRRRVCKQSMGENSVEMAFQKETTQLIDPDAATCETSTCAPPLG
B2: JR-FL monomeric gp120 (natural protein)
chain: not shown
modifications: N-glycosylated and sialylated (293F-expressed). Limits are not printed: start is the candidate's CHAIN start at 32, end is the residue before gp41 at 503. A vector-derived N-terminus from the CD5 leader, and a C-terminus affected by the cleavage-site change, are possible but not stated.

Columns and labels:
JR-FL FD trimeric gp145 [1] = target: T1, JR-FL FD trimeric gp145 (HIV-1 JR-FL | bacteriophage T4); assay: SPR; immobilized JR-FL gp145
SF162 FD trimeric gp145 [2] = target: T2, SF162 FD trimeric gp145 (HIV-1 SF162 | bacteriophage T4, UniProt P19551); assay: SPR; immobilized Siglec-1
JR-FL FD trimeric gp145 [3] = target: T1, JR-FL FD trimeric gp145; assay: SPR; immobilized Siglec-1
Soc-V1V2SF162 (CHO-S) = Soc-V1V2SF162 (CHO-S) (bacteriophage T4 | HIV-1 SF162); assay: SPR; immobilized Siglec-1
SF162 FD trimeric gp145 [4] = target: T2, SF162 FD trimeric gp145; assay: SPR; immobilized SF162 gp145
Soc-V1V2JR-FL (293F) = Soc-V1V2JR-FL (293F) (bacteriophage T4 | HIV-1 JR-FL); assay: SPR; immobilized Siglec-1
[5] = target: B1; assay: SPR; immobilized Siglec-1

Binder: B1
- Kd (JR-FL FD trimeric gp145 [1]): 2.9 nM
- Kd (SF162 FD trimeric gp145 [2]): 0.441 nM
- Kd (JR-FL FD trimeric gp145 [3]): 0.28 nM
- Kd (Soc-V1V2SF162 (CHO-S)): 1.96 nM
- Kd (SF162 FD trimeric gp145 [4]): 8.26 nM
- Kd (Soc-V1V2JR-FL (293F)): 4.34 nM

Binder: B2
- Kd [5]: 4.13 nM
